Target: Biotinylated CyRPA (residues 29 to 362) with a C-terminal Avitag (P. falciparum, UniProt Q8IFM8 29-362, biotin (on the Avitag))
Experiment: BLI

| Binder | Kd [nM] |
| --- | --- |
| Rh5_(unproc), full-length PfRh5 (residues 26 to 526) (natural protein) ENAIKKTKNQENNLTLLPIKSTEEEKDDIKNGKDIKKEIDNDKENIKTNNAKDHSTYIKSYLNTNVNDGLKYLFIPSHNSFIKKYSVFNQINDGMLLNEKNDVKNNEDYKNVDYKNVNFLQYHFKELSNYNIANSIDILQEKEGHLDFVIIPHYTFLDYYKHLSYNSIYHKSSTYGKCIAVDAFIKKINEAYDKVKSKCNDIKNDLIATIKKLEHPYDINNKNDDSYRYDISEEIDDKSEETDDETEEVEDSIQDTDSNHAPSNKKKNDLMNRAFKKMMDEYNTKKKKLIKCIKNHENDFNKICMDMKNYGTNLFEQLSCYNNNFCNTNGIRYHYDEYIHKLILSVKSKNLNKDLSDMTNILQQSELLLTNLNKKMGSYIYIDTIKFIHKEMKHIFNRIEYHTKIINDKTKIIQDKIKLNIWRTFQKDELLKRILDMSNEYSLFITSDHLRQMLYNTFYSKEKHLNNIFHHLIYVLQMKFNDVPIKMEYFQTYKKNKPLTQ | 127 |
| Rh5_(proc), processed form of PfRh5 lacking the N-terminal domain (residues 145-526) (domain or fragment) LQYHFKELSNYNIANSIDILQEKEGHLDFVIIPHYTFLDYYKHLSYNSIYHKSSTYGKCIAVDAFIKKINEAYDKVKSKCNDIKNDLIATIKKLEHPYDINNKNDDSYRYDISEEIDDKSEETDDETEEVEDSIQDTDSNHAPSNKKKNDLMNRAFKKMMDEYNTKKKKLIKCIKNHENDFNKICMDMKNYGTNLFEQLSCYNNNFCNTNGIRYHYDEYIHKLILSVKSKNLNKDLSDMTNILQQSELLLTNLNKKMGSYIYIDTIKFIHKEMKHIFNRIEYHTKIINDKTKIIQDKIKLNIWRTFQKDELLKRILDMSNEYSLFITSDHLRQMLYNTFYSKEKHLNNIFHHLIYVLQMKFNDVPIKMEYFQTYKKNKPLTQ | 179 |
